Assays:
[1] = target: B30.2 domain of rhesus TRIM5α (rhesus macaque) (UniProt Q0PF16); test: dual-focus fluorescence correlation spectroscopy (2fFCS); 2 nM Alexa 488-labelled B30.2 or CypA titrated with unlabelled capsid surrogate; 7°C; hydrodynamic radius against concentration, viscosity corrected with CypA as reference; Kd per monomeric capsid equivalent
[2] = target: B30.2 domain of human TRIM5α (human) (UniProt Q9C035); test: as above
[3] = target: Flag-tagged human cyclophilin A (human) (UniProt P62937); test: as above
Flag-tagged human cyclophilin A (human), sequence (P62937 whole entry): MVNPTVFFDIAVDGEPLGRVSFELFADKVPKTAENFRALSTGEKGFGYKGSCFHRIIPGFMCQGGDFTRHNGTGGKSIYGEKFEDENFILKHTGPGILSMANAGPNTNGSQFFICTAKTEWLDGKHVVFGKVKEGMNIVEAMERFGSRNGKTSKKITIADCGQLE

[4] = target: Flag-tagged human cyclophilin A (human) (UniProt P62937); test: dual-focus fluorescence correlation spectroscopy (2fFCS)

B30.2 domain of rhesus TRIM5α (rhesus macaque), sequence (Q0PF16 other isoform, or with tags, fused parts or gaps): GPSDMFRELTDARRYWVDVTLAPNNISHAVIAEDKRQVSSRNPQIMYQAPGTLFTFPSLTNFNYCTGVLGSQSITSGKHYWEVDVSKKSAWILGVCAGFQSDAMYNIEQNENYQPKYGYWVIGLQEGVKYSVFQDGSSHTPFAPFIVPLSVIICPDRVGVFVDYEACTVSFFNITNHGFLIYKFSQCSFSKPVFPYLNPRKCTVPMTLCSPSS
B30.2 domain of human TRIM5α (human), sequence (Q9C035 286-493): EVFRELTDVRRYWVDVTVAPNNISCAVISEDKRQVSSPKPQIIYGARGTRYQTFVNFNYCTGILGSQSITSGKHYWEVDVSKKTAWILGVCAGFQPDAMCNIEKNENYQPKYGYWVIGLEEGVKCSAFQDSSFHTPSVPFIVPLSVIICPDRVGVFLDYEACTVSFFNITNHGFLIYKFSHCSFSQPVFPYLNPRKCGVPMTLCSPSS

| Substance | Kd [1] | Kd [2] | Kd [3] | Kd [4] |
| --- | --- | --- | --- | --- |
| disulfide-linked A14C E45C W184A M185A HIV-1 capsid hexamer (complex) | 600 µM | 540 µM | 28.9 µM | – |
| wild-type, full-length HIV-1 capsid protein (from UniProt P12493 133-363) (natural protein; other documents disagree on this pair) | – | – | – | 26.5 µM |
| TMEA-cross-linked R82C E180D V181A HIV-1 capsid trimer (complex) | 440 µM | 840 µM | 17.8 µM | – |
